According to article PMC2367712:

Target: Lsr2 P103A (Mycobacterium tuberculosis, UniProt P9WIP7 1-112, P101A)
Assay: EMSA

B1: C42 (dsDNA)
DNA 1: AAAAATCTCTAAAAAATCTCTAAAAATCTCTAAAAAATCTCT
DNA 2: AGAGATTTTTTAGAGATTTTTAGAGATTTTTTAGAGATTTTT
B1: binds.
